Literature values, collected in PMC10947324.

Key:
Settings in all cases: monomeric, unstructured Abeta
[1] = target: His14 (UniProt position 685, GYEVHHQKLVF)
[2] = target: His13 (UniProt position 684, SGYEVHHQKLV)
[3] = target: His6 (UniProt position 677, DAEFRHDSGYE)

In the case of “Amyloid-beta peptide (Abeta), monomeric (Homo sapiens (inferred; the article discusses the peptide of Alzheimer's disease patients))”, the pKa [1] is given as 6.67, the pKa [2] is given as 6.64 and the pKa [3] is given as 6.67.
